Assay results as given in publication PMC7592630 (FASEB journal : official publication of the Federation of …, 2019).

Target: the molecule itself
Test: sucrose gradient velocity sedimentation

B1: C213Y Prph2 (natural protein, UniProt P15499 1-346, looked up)
chain: MALLKVKFDQKKRVKLAQGLWLMNWLSVLAGIVLFSLGLFLKIELRKRSEVMNNSESHFVPNSLIGVGVLSCVFNSLAGKICYDALDPAKYAKWKPWLKPYLAVCIFFNVILFLVALCCFLLRGSLESTLAYGLKNGMKYYRDTDTPGRCFMKKTIDMLQIEFKCCGNNGFRDWFEIQWISNRYLDFSSKEVKDRIKSNVDGRYLVDGVPFSYCNPSSPRPCIQYQLTNNSAHYSYDHQTEELNLWLRGCRAALLNYYSSLMNSMGVVTLLVWLFEVSITAGLRYLHTALESVSNPEDPECESEGWLLEKSVPETWKAFLESFKKLGKSNQVEAEGADAGPAPEAG
modifications: N-linked glycan (the paper shows that the mutant is glycosylated; Asn229 is the site in Prph2)
In the case of B1, the “stoichiometry N” value is reported as 4.
